Laboratory results as given in PMC8013792, “Bacterial protein domains with a novel Ig‐like fold target human CEACAM receptors” (The EMBO Journal, 2021).
Where a chain is given by its changes, count along the chain named. Names and notes keep the numbering of the source.

T1: tag-less unglycosylated CEACAM1 N-terminal domain (rCEACAM1-N, pET21d) (human, UniProt P13688 34-141)
T1 construct: N-terminal IgV-like domain of human CEACAM1; also called rCC1-N; CC1-N; source: E. coli, pET21d, purified as in Bonsor et al, 2015a
T1 sequence: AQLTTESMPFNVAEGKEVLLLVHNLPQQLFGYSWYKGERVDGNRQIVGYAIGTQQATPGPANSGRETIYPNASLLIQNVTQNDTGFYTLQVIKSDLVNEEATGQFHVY

B1: tag-less CEACAM1 N-terminal domain, unglycosylated (domain or fragment, human)
chain: T1 sequence
notes: CEACAM1, human, N-terminal IgV-like domain, tag-less; also called rCEACAM1-N; CC1-N; source: E. coli (pET21d), purified
B2: IgI3 domain of R28 protein, recombinant, as used in ITC (domain or fragment)
chain: KYSPEAKHRTVEQHAELDAKDSIANTDELPSNSTYNWKNGHKPDTSTSGEKDGIVEVHYPDGTVDDVNVKVTVTSKKTDNTAPTLTVTPEQQTVKVDEDITFTVTVEDENEVELGLDDLKAKYENDIIGARVKIKYLTKEPNKKVMEVTIMKATLADKGAITFTAKDKAGNQAEPKTVTINVLPLK
modifications: Construct limits not printed. 233-418 is the unannotated region between the AlphaC C-terminal domain (ends 232) and the first annotated Rib repeat (starts 419); it should enclose the IgI3 domain …
B3: β-IgI3 L45A (rβIgI3ΔL45A-His) (domain or fragment)
chain: ANENNQQKIELTVSPENITVYEGEDVKFTVTAKSDSKTTLDFSDALTKYNPSVSDRISTNYKTNTDNHKIAEITIKNLKLNESQTVTLKAKDDSGNVVEKTFTITVQKKEEKQ
notes: the substitution is still to be applied; its number counts on the domain's own 1-113; source: E. coli RG (Rosetta Gami), purified (Nickel column)
B4: β-IgI3 S52A (rβIgI3ΔS52A-His) (domain or fragment)
chain: B3 chain with A45L, S52A
notes: as for B3

Assays:
[1] = target: IgSF (IgI3) domain of β protein, recombinant, as used in ITC (Streptococcus agalactiae (GBS)); experiment: ITC; iTC200, 25°C, 30 mM Tris-HCl, 150 mM NaCl, pH 7.5; typically 500 µM unglycosylated CEACAM-N domain in the syringe, 50 µM IgI3 domain; duplicates
[2] = target: β-IgI3 F42A, as used in ITC (Streptococcus agalactiae (GBS)); experiment: as above
[3] = target: β-IgI3 V53A, as used in ITC (Streptococcus agalactiae (GBS)); experiment: as above
[4] = target: β-IgI3 D55A, as used in ITC (Streptococcus agalactiae (GBS)); experiment: as above
[5] = target: B2; experiment: as above; conditions: both partners purified
[6] = target: B1; experiment: as above; conditions: both partners purified
[7] = target: T1, tag-less unglycosylated CEACAM1 …; experiment: ITC; iTC200, 25 °C, 16 injections of 2.42 µL; typically 500 µM unglycosylated CEACAM-N in the syringe and 50 µM β-IgSF/β-IgI3; 30 mM Tris-HCl, 150 mM NaCl, pH 7.5; duplicates; conditions: both partners purified

## CEACAM5 N-terminal domain, unglycosylated (domain or fragment)
[1]
  Kd: 152 nM

## tag-less CEACAM1-N V96A, unglycosylated (from UniProt P13688 34-141) (domain or fragment)
[1]
  Kd: 370 nM

## tag-less CEACAM1-N Q44A, unglycosylated (from UniProt P13688 34-141) (domain or fragment)
[1]
  Kd: 996 nM

## tag-less CEACAM1-N N97A, unglycosylated (from UniProt P13688 34-141) (domain or fragment)
[1]
  Kd: 490 nM

## tag-less CEACAM1 N-terminal domain, unglycosylated (from UniProt P13688 34-141) (domain or fragment)
[2]
  Kd: 16 nM
[1]
  Kd: 96 nM
[3]
  Kd: 562 nM
[4]
  Kd: 690 nM

## tag-less CEACAM1-N L95A, unglycosylated (from UniProt P13688 34-141) (domain or fragment)
[1]
  Kd: 1350 nM

## B1
[5]
  dH: -4.8 ± 0.3 kcal/mol

## B2
[6]
  Kd: 1050 ± 18 nM

## B3
[7]
  Kd: 234 nM

## B4
[7]
  Kd: 85 nM
